In patent US20260193348A1 (ANTENGENE BIOLOGICS, published 2026):
Residue numbers refer to the chain shown, from its start. Numbers in names are those of the source.

B1: Bis-40E9-L5H7 (bispecific antibody)
heavy 1: not shown
heavy 2: EVQLVQSGAEVKKPGASVKVSCKASGYTFTSYVIHWVRQAPGQGLEWMGYFNPYNDGTKYNEEFKGRVTLTSDKSTSTAYMELRSLRSDDTAVYYCARGGVRRYFDVWGQGTTVTVSSASTKGPSVFPLAPSSKSTSGGTAALGCLVKDYFPEPVTVSWNSGALTSGVHTFPAVLQSSGLYSLSSVVTVPSSSLGTQTYICNVNHKPSNTKVDKKVEPKSCGGGGSGGGGSEVQLVQSGAEVKKPGSSVKVSCKASGYTFSSYVIHWVRQAPGQCLEWMGYINPGNGVIKYNEKFKGRVTLTSDKSTSTAYMELSSLRSEDTAVYYCARDSYSSYDGFAYWGQGTLVTVSSGGGGSGGGGSGGGGSGGGGSEIVLTQSPDFQSVTPKEKVTITCSASSSVSYMHWYQQKPDQSPKRLIYDTSKLASGVPSRFSGSGSGTDFTLTINSLEAEDAATYYCQQWRSSPPTFGCGTKVEIKGGGGSGGGGSDKTHTCPPCPAPEAAGGPSVFLFPPKPKDTLMISRTPEVTCVVVDVSHEDPEVKFNWYVDGVEVHNAKTKPREEQYNSTYRVVSVLTVLHQDWLNGKEYKCKVSNKALPAPIEKTISKAKGQPREPQVCTLPPSREEMTKNQVSLSCAVKGFYPSDIAVEWESNGQPENNYKTTPPVLDSDGSFFLVSKLTVDKSRWQQGNVFSCSVMHEALHNHYTQKSLSLSPGK
light: DIQMTQSPSSLSASVGDRVTITCRASQDIGSNLNWLQQKPGKAIKRLIYATFGLDSGVPSRFSGSRSGTDFTLTISSLQPEDFATYYCQQYASFPYTFGGGTKVEIKRTVAAPSVFIFPPSDEQLKSGTASVVCLLNNFYPREAKVQWKVDNALQSGNSQESVTEQDSKDSTYSLSSTLTLSKADYEKHKVYACEVTHQGLSSPVTKSFNRGEC
notes: Fab-scFv-Fab format with LALA mutations; copies: 1 + 1 + 2
B2: Bis-40E9-L2H6 (bispecific antibody)
heavy 1: not shown
heavy 2: B1 heavy 2 with G285Y, G287D, D330E, Y332F, R462S, S464N
light: B1 light
notes: Fab-scFv-Fab format with LALA mutations
B3: Bis-40E9-L2H9 (bispecific antibody)
heavy 1: not shown
heavy 2: B1 heavy 2 with G285Y, N286S, G287D, D330E, Y332F, S333Y, R462S, S464N
light: B1 light
notes: as for B2
B4: Bis-40E9-L2H10 (bispecific antibody)
heavy 1: not shown
heavy 2: B1 heavy 2 with G285Y, G287D, S333Y, D336E, G337A, R462S, S464N
light: B1 light
notes: as for B1
B5: Bis-108+147-K36R.L (bispecific antibody)
heavy 1: not shown
heavy 2: EVQLVQSGAEVKKPGASVKVSCKASGYTFTSYVIHWVRQAPGQGLEWMGYFNPYNDGTKYNEEFKGRVTLTSDKSTSTAYMELRSLRSDDTAVYYCARGGVRRYFDVWGQGTTVTVSSASTKGPSVFPLAPSSKSTSGGTAALGCLVKDYFPEPVTVSWNSGALTSGVHTFPAVLQSSGLYSLSSVVTVPSSSLGTQTYICNVNHKPSNTKVDKKVEPKSCGGGGSGGGGSEVQLVQSGAEVKKPGSSVKVSCKASGYTFTSYWMHWVRQAPGQCLEWMGNINPSSGATNYNEKFKSRVTLTVDKSTSTAYMELSSLRSEDTAVYYCARDRSSQYYFDYWGQGTTVTVSSGGGGSGGGGSGGGGSGGGGSDIVMTQSPDSLAVSLGERATINCKSSQSLLNSRSRRNYLAWYQQKPGQPPKLLIYWASTRESGVPDRFSGSGSGTDFTLTISSLQAEDVAVYYCTQSYTLRTFGCGTKVEIKGGGGSGGGGSDKTHTCPPCPAPEAAGGPSVFLFPPKPKDTLMISRTPEVTCVVVDVSHEDPEVKFNWYVDGVEVHNAKTKPREEQYNSTYRVVSVLTVLHQDWLNGKEYKCKVSNKALPAPIEKTISKAKGQPREPQVCTLPPSREEMTKNQVSLSCAVKGFYPSDIAVEWESNGQPENNYKTTPPVLDSDGSFFLVSKLTVDKSRWQQGNVFSCSVMHEALHNHYTQKSLSLSPGK
light: B1 light
notes: Fab-scFv-Fab format
B6: Bis-108+147-S31R.H (bispecific antibody)
heavy 1: not shown
heavy 2: B5 heavy 2 with S262R, R406K
light: B1 light
notes: Fab-scFv-Fab format
B7: Bis-108+147-N31Y.L (bispecific antibody)
heavy 1: not shown
heavy 2: B5 heavy 2 with N401Y, R406K
light: B1 light
notes: Fab-scFv-Fab format
B8: Bis-108+147-R33A.L (bispecific antibody)
heavy 1: not shown
heavy 2: B5 heavy 2 with R403A, R406K
light: B1 light
notes: Fab-scFv-Fab format
B9: Bis-108+147-N37K.L (bispecific antibody)
heavy 1: not shown
heavy 2: B5 heavy 2 with R406K, N407K
light: B1 light
notes: Fab-scFv-Fab format
B10: Bis-108+147-R35K.L (bispecific antibody)
heavy 1: not shown
heavy 2: B5 heavy 2 with R405K, R406K
light: B1 light
notes: Fab-scFv-Fab format
B11: Bis-108+147-S32R.L (bispecific antibody)
heavy 1: not shown
heavy 2: B5 heavy 2 with S402R, R406K
light: B1 light
notes: Fab-scFv-Fab format

target: T1, GPRC5D on MM.1S cells (human, UniProt Q9NZD1 1-345); test: FACS on MM.1S cells
T1 construct: whole, on cells; MM.1S is called a GPRC5D positive expressed cell line and human multiple myeloma cells; also called G-protein coupled receptor family C group 5 member D
Description: To evaluate the binding affinity of the generated chimeric bispecific antibody to T cells, the isolated CD3⁺ T cells were stained by antibodies and the binding affinity was determined by FACS analysis. The protocol of FACS analysis is described as follows: [0785] (a) CD3⁺ T cells were isolated from normal donors. [0786] (b) The isolated CD3⁺ T cells were washed by Staining Buffer (PBS+1% BSA) in round bottom 96-well plate. […] (c) Antibody dilutions were added to each well and mixed with the CD3+ T cells, incubated at 4 degrees for 1 hour. […] (d) Cells were spined at 300 g for 3 minutes, then the supernatants were discarded. [0789] (e) Cells were washed with Staining Buffer. [0790] (f) Step (d) was repeated, and the cells were incubated with secondary antibody in Staining Buffer for 0.5 hours at 4 degrees. [0791] (g) After incubation, step (d)-(e) were repeated. [0792] (h) Cells were resuspended in Staining Buffer and fluorescence signals were recorded by flow cytometry.
The binding affinities of the generated humanized Fab-scFv-Fab bispecific antibodies to MM.1S were evaluated by FACS analysis. The protocol for FACS analysis is identical to that described in Example 1.2, except that MM.1S were used in this example.

T1 sequence (Q9NZD1 whole entry): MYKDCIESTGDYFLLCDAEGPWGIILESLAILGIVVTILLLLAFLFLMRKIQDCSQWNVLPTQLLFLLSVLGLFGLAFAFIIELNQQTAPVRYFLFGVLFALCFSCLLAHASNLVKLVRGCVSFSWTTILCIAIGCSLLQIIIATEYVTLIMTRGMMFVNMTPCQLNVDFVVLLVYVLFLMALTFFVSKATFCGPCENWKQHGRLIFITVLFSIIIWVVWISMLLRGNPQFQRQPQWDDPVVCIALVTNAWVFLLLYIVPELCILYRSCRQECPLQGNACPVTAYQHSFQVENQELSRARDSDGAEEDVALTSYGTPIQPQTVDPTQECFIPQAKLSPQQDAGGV

Binder	Ratio of EC50 (relative to ATG-Bis-40E9) [ratio]	Ratio of Top MFI (relative to ATG-Bis-40E9) [ratio]
B1	1.14	0.989
B2	0.824	0.877
B3	0.926	0.874
B4	1.15	1.02

target: T1, GPRC5D on MM.1S cells; test: cell-based or functional assay

Binder	Ratio of EC50 (relative to ATG-Bis-40E9), luciferase assay on MM.1S [ratio]	Ratio of Top RLU (relative to ATG-Bis-40E9), luciferase assay on MM.1S [ratio]
B1	18	1.38
B2	–	0.04
B3	96.4	0.28
B4	10.2	0.71

target: T1, GPRC5D on MM.1S cells; test: cell-based or functional assay; remark: another data set of the same source

Binder	IC50 of T-cell dependent cytotoxicity on MM.1S cells [nM]	Top (%) target cell killing, MM.1S cells [%]
B5	1940	–
B6	4.43	159
B7	–	122
B8	1.51	45.1
B9	1490	–
B10	0.61	99.9
B11	0.54	99

target: T1, GPRC5D on MM.1S cells; test: cell-based or functional assay; remark: another data set of the same source

Binder	Ratio of IC50 (relative to ATG-Bis-40E9), MM.1S cytotoxicity [ratio]	Ratio of Top cytotoxicity (relative to ATG-Bis-40E9), MM.1S cytotoxicity [ratio]
B1	9.82	0.99
B2	–	0.06
B3	87.7	0.87
B4	18.4	0.96

target: T1, GPRC5D on MM.1S cells; test: FACS on MM.1S cells; remark: another data set of the same source
Description: The binding affinities of the generated humanized Fab-scFv-Fab bispecific antibodies were determined by FACS analysis. […] (a) Jurkat cells were washed by Staining Buffer (PBS+1% BSA) in round bottom 96-well plate. [0833] (b) Antibody dilutions and cells were added to each well, incubated at 4 degrees for 1 hour. [0834] (c) Cells were spined down at 300 g for 3 minutes, and the supernatants were discarded. [0835] (d) Cells were washed with Staining Buffer. […] (e) Step (d) was repeated and the cells were incubated for 0.5 hours at 4 degrees with secondary antibody in Staining Buffer. [0837] (f) After incubation, step (d)-(e) were repeated. […] (g) Staining Buffer was added and fluorescence signals were recorded by flow cytometry.
The binding affinities of the generated humanized Fab-scFv-Fab bispecific antibodies were determined by FACS analysis. The ATG-Bis-40E9 was used as positive control and hIgG1 isotype was used as negative control. The protocol for FACS analysis is identical to that described in Example 3.2, except that MM.1S cells were used in this example.

Binder	EC50 [nM]	Top signal [MFI]
B5	1.56	1840
B6	1.5	2030
B7	1.93	1930
B8	1.87	1650
B9	2.15	1900
B10	1.58	1740
B11	1.76	2050

target: T1, GPRC5D on MM.1S cells; test: cell-based or functional assay; remark: another data set of the same source

Binder	EC50, Jurkat-NFAT-Luciferase assay in the presence of MM.1S cells [nM]	Top RLU, Jurkat-NFAT-Luciferase assay in the presence of MM.1S cells [RLU]
B5	0.76	326
B6	0.25	334
B7	0.27	11.8
B8	2.48	287
B9	0.15	424
B10	0.47	408
B11	0.32	406
